Measured values as given in patent US20180155451A1 (published 2018).

Experiments:
[1] = molecular target: T1, FcγRIIb, extracellular domain with C-terminal His tag (human, UniProt P31994 43-217); assay: SPR (Biacore), antibody captured on antigen-peptide chip, FcγR as analyte; GpH7-A5/GpH7-B3/GpL16-k0 = 100
T1 construct: extracellular domain; also called 2b; FcgRIIb; not shown: His tag at the C terminus
T1 sequence (looked up): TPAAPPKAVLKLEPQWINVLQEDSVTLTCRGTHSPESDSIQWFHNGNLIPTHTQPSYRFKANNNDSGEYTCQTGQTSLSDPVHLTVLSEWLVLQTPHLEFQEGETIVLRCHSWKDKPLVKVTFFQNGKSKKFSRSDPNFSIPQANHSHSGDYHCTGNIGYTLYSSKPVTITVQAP
Procedure: (§1) The heterodimerized antibodies He Abs in which one of the H chains was introduced with an alteration were assayed for their binding activities to each activating FcγR and inhibitory FcγR according to the method described in Example 4. […] The activating FcγRs in FIGS. 26, 27, 28, and 29 are FcγRIa, FcγRIIa (R), FcγRIIa (H), and FcγRIIIa, respectively.
(§2) Analysis of interaction between objective antibody and the FcγR was carried out using Biacore T100 (GE Healthcare). HBS-EP+ (GE Healthcare) was used as the running buffer, and the measurement temperature was set to 25° C. Chips produced by immobilizing the antigen peptide by the amine coupling method to a Series S Sencor Chip CM5 (GE Healthcare), or alternatively, chips produced by allowing preliminarily biotinylated antigen peptides to interact with and immobilize onto a Series S Sensor Chip SA (certified) (GE Healthcare) were used. Antibodies of interest were captured onto an antigen peptide-immobilized chip, and allowed to interact to each FcγR diluted with running buffer. To regenerate and repeatedly use the chip, the antibodies captured on the chip were washed off by reacting 10 mM glycine-HCl, pH 1.5.

[2] = molecular target: T2, FcγRIIa H (FcγRIIa type H, His at position 131), extracellular domain with C-terminal His tag (human, UniProt P12318 34-217); assay: as above
T2 construct: extracellular domain; also called 2aH; FcgRIIa H; not shown: His tag at the C terminus
T2 sequence (looked up): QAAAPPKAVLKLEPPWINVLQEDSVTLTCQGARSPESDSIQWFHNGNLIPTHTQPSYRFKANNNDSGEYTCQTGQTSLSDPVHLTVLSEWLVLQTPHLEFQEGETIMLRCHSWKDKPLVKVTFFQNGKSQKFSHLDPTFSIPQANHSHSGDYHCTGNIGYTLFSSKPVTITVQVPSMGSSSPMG
Procedure: as §1, §2

B1: GpH7-A5/GpH7-B3 variant P271_08L/GpL16-k0 (antibody, human IgG1, kappa)
heavy 1: not shown
heavy 2: not shown
light: DIVMTQSPLSLPVTPGEPASISCQASESLVHSNRNTYLHWYLQKPGQSPQLLIYKVSNRFSGVPDRFSGSGSGTDFTLKISRVEAEDVGVYYCSQNTHVPPTFGQGTKVEIERTVAAPSVFIFPPSDEQLKSGTASVVCLLNNFYPREAKVQWKVDNALQSGNSQESVTEQDSKDSTYSLSSTLTLSKADYEKHKVYACEVTHQGLSSPVTKSFNRGEC
notes: Heterodimerized IgG1 (He Ab); mutation only in the GpH7-B3 chain; also called He Ab P271L
- He/Con_2b (relative binding activity) [1]: 103 % of control
- He/Con_2aH (relative binding activity) [2]: 86.7 % of control

B2: GpH7-A5/GpH7-B3 variant P271_09D/GpL16-k0 (antibody, human IgG1, kappa)
heavy 1: not shown
heavy 2: not shown
light: DIVMTQSPLSLPVTPGEPASISCQASESLVHSNRNTYLHWYLQKPGQSPQLLIYKVSNRFSGVPDRFSGSGSGTDFTLKISRVEAEDVGVYYCSQNTHVPPTFGQGTKVEIERTVAAPSVFIFPPSDEQLKSGTASVVCLLNNFYPREAKVQWKVDNALQSGNSQESVTEQDSKDSTYSLSSTLTLSKADYEKHKVYACEVTHQGLSSPVTKSFNRGEC
notes: Heterodimerized IgG1 (He Ab); mutation only in the GpH7-B3 chain; also called He Ab P271D
- He/Con_2b (relative binding activity) [1]: 120 % of control
- He/Con_2aH (relative binding activity) [2]: 70.1 % of control

B3: GpH7-A5/GpH7-B3 variant P271_10E/GpL16-k0 (antibody, human IgG1, kappa)
heavy 1: not shown
heavy 2: not shown
light: DIVMTQSPLSLPVTPGEPASISCQASESLVHSNRNTYLHWYLQKPGQSPQLLIYKVSNRFSGVPDRFSGSGSGTDFTLKISRVEAEDVGVYYCSQNTHVPPTFGQGTKVEIERTVAAPSVFIFPPSDEQLKSGTASVVCLLNNFYPREAKVQWKVDNALQSGNSQESVTEQDSKDSTYSLSSTLTLSKADYEKHKVYACEVTHQGLSSPVTKSFNRGEC
notes: Heterodimerized IgG1 (He Ab); mutation only in the GpH7-B3 chain; also called He Ab P271E
- He/Con_2b (relative binding activity) [1]: 109 % of control
- He/Con_2aH (relative binding activity) [2]: 63.1 % of control

B4: GpH7-A5/GpH7-B3 variant S267_19Q/GpL16-k0 (antibody, human IgG1, kappa)
heavy 1: not shown
heavy 2: not shown
light: DIVMTQSPLSLPVTPGEPASISCQASESLVHSNRNTYLHWYLQKPGQSPQLLIYKVSNRFSGVPDRFSGSGSGTDFTLKISRVEAEDVGVYYCSQNTHVPPTFGQGTKVEIERTVAAPSVFIFPPSDEQLKSGTASVVCLLNNFYPREAKVQWKVDNALQSGNSQESVTEQDSKDSTYSLSSTLTLSKADYEKHKVYACEVTHQGLSSPVTKSFNRGEC
notes: Heterodimerized IgG1 (He Ab); mutation only in the GpH7-B3 chain; also called He Ab S267Q
- He/Con_2b (relative binding activity) [1]: 218 % of control
- He/Con_2aH (relative binding activity) [2]: 61.3 % of control

B5: GpH7-A5/GpH7-B3 variant S298_06M/GpL16-k0 (antibody, human IgG1, kappa)
heavy 1: not shown
heavy 2: not shown
light: DIVMTQSPLSLPVTPGEPASISCQASESLVHSNRNTYLHWYLQKPGQSPQLLIYKVSNRFSGVPDRFSGSGSGTDFTLKISRVEAEDVGVYYCSQNTHVPPTFGQGTKVEIERTVAAPSVFIFPPSDEQLKSGTASVVCLLNNFYPREAKVQWKVDNALQSGNSQESVTEQDSKDSTYSLSSTLTLSKADYEKHKVYACEVTHQGLSSPVTKSFNRGEC
notes: Heterodimerized IgG1 (He Ab); mutation only in the GpH7-B3 chain; also called He Ab S298M
- He/Con_2b (relative binding activity) [1]: 102 % of control
- He/Con_2aH (relative binding activity) [2]: 98.1 % of control

B6: GpH7-A5/GpH7-B3 variant S298_08L/GpL16-k0 (antibody, human IgG1, kappa)
heavy 1: not shown
heavy 2: not shown
light: DIVMTQSPLSLPVTPGEPASISCQASESLVHSNRNTYLHWYLQKPGQSPQLLIYKVSNRFSGVPDRFSGSGSGTDFTLKISRVEAEDVGVYYCSQNTHVPPTFGQGTKVEIERTVAAPSVFIFPPSDEQLKSGTASVVCLLNNFYPREAKVQWKVDNALQSGNSQESVTEQDSKDSTYSLSSTLTLSKADYEKHKVYACEVTHQGLSSPVTKSFNRGEC
notes: Heterodimerized IgG1 (He Ab); mutation only in the GpH7-B3 chain; also called He Ab S298L
- He/Con_2b (relative binding activity) [1]: 108 % of control
- He/Con_2aH (relative binding activity) [2]: 85 % of control

B7: GpH7-A5/GpH7-B3 variant Y296_20W/GpL16-k0 (antibody, human IgG1, kappa)
heavy 1: not shown
heavy 2: not shown
light: DIVMTQSPLSLPVTPGEPASISCQASESLVHSNRNTYLHWYLQKPGQSPQLLIYKVSNRFSGVPDRFSGSGSGTDFTLKISRVEAEDVGVYYCSQNTHVPPTFGQGTKVEIERTVAAPSVFIFPPSDEQLKSGTASVVCLLNNFYPREAKVQWKVDNALQSGNSQESVTEQDSKDSTYSLSSTLTLSKADYEKHKVYACEVTHQGLSSPVTKSFNRGEC
notes: Heterodimerized IgG1 (He Ab); mutation only in the GpH7-B3 chain; also called He Ab Y296W
- He/Con_2b (relative binding activity) [1]: 103 % of control
- He/Con_2aH (relative binding activity) [2]: 97.6 % of control

B8: GpH7-A5/GpH7-B3 variant Y300_10E/GpL16-k0 (antibody, human IgG1, kappa)
heavy 1: not shown
heavy 2: not shown
light: DIVMTQSPLSLPVTPGEPASISCQASESLVHSNRNTYLHWYLQKPGQSPQLLIYKVSNRFSGVPDRFSGSGSGTDFTLKISRVEAEDVGVYYCSQNTHVPPTFGQGTKVEIERTVAAPSVFIFPPSDEQLKSGTASVVCLLNNFYPREAKVQWKVDNALQSGNSQESVTEQDSKDSTYSLSSTLTLSKADYEKHKVYACEVTHQGLSSPVTKSFNRGEC
notes: Heterodimerized IgG1 (He Ab); mutation only in the GpH7-B3 chain; also called He Ab Y300E
- He/Con_2b (relative binding activity) [1]: 134 % of control
- He/Con_2aH (relative binding activity) [2]: 97.2 % of control

B9: GpH7-A5/GpH7-B3 variant Y300_19Q/GpL16-k0 (antibody, human IgG1, kappa)
heavy 1: not shown
heavy 2: not shown
light: DIVMTQSPLSLPVTPGEPASISCQASESLVHSNRNTYLHWYLQKPGQSPQLLIYKVSNRFSGVPDRFSGSGSGTDFTLKISRVEAEDVGVYYCSQNTHVPPTFGQGTKVEIERTVAAPSVFIFPPSDEQLKSGTASVVCLLNNFYPREAKVQWKVDNALQSGNSQESVTEQDSKDSTYSLSSTLTLSKADYEKHKVYACEVTHQGLSSPVTKSFNRGEC
notes: Heterodimerized IgG1 (He Ab); mutation only in the GpH7-B3 chain; also called He Ab Y300Q
- He/Con_2b (relative binding activity) [1]: 108 % of control
- He/Con_2aH (relative binding activity) [2]: 96.1 % of control
